Read-outs that look alike come from different tables or passages of the source.

The Kd is the equilibrium constant for the complex coming apart.

Experiment [1] addresses cynomolgus monkey CD32a (cynomolgus monkey).
Experiment [2] has the same target. This is another data set of the same source.
Experiment [3] deals with cynomolgus monkey CD32b (cynomolgus monkey).

On to Rituximab (antibody), for which the results for the Kd in experiment [1], in experiment [2] and in experiment [3] were 5.94 µM, 3.13 µM and 1.46 µM, respectively.

(Values after patent publication US20250179183A1.)
